# Source: the supplement of paper PMC7877785
# ± gives the uncertainty stated by the source.
# Test: self-splicing fitness, log relative to wild type (ln ratio); higher = more splicing; Tetrahymena group I intron in knt gene, E. coli kanamycin selection, DiMSum; sequences stand for … in CUCUCU…GGAGGGAAAAGUUAUCAGGCAUGCACCUGGUAGCUAGUCUUUAAACCAAUAGAUUGCAUCGGUUUAAAAGGCAAGACCGUCAAAUUGCGGGAAAGGGGUCAACAGCCGUUCAGUACCAAGUCUCAGGGGAAACUUUGAGAUGGCCUUGCAAAGGGUAUGGUAAUAAGCUGACGGACAUGGUCCUAACCACGCAGCCAAGUCCUAAGUCAACAGAUCUUCUGUUGAUAUGGAUGCAGUUCACAGACUAAAUGUCGGUCGGGGAAGAUGUAUUCUUCUCAUAAGAUAUAGUCGGACCUCUCCUUAAUGGGAGCUAGCGGAUGAAGUGAUGCAACACUGGAGCCGCUGGGAACUAAUUUGUAUGCGAAAGUAUAUUGAUUAGUUUUGGAGUACUCGUGGUCG
# In short: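 Fitness was computed with DiMSum as the error-weighted combination of replicate fold changes, kanamycin versus none, each normalised to wild type. The library randomised all eight intron nucleotides of the P1ex region, with the intron placed in the knt kanamycin-resistance gene on pET-22b(+) in E. coli BL21(DE3). Six replicate transformations were grown overnight at 37°C or 30°C on LB agar with or without 25 μg/mL kanamycin, plus 100 μg/mL carbenicillin, 50 μM IPTG and 0.2% rhamnose. Pooled colonies were amplicon-sequenced on an Illumina HiSeq 2500.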
Sequence,self-splicing fitness (ln) (30 °C),self-splicing fitness (ln) (37 °C)
CGGGAGCAAUAUUACGCGGA,-2.82 ± 0.23,-2.93 ± 0.28
CGGGAGCAAUAUUACGCGUA,-2.29 ± 0.29,-1.03 ± 0.24
CGGGAGCAAUAUUACGGCGU,-3.6 ± 0.26,-1.73 ± 0.21
CGGGAGCAAUAUUACGGUCA,-3.17 ± 0.32,-1.93 ± 0.28
CGGGAGCAAUAUUACGUAUA,-3.33 ± 0.33,-2.4 ± 0.25
CGGGAGCAAUAUUACGUCGA,,-1.71 ± 0.48
CGGGAGCAAUAUUACGUCUG,-3.61 ± 0.22,-2.03 ± 0.22
CGGGAGCAAUAUUACGUGCA,-3.02 ± 0.27,-2.29 ± 0.22
CGGGAGCAAUAUUACGUGUG,-2.47 ± 0.16,-0.316 ± 0.11
CGGGAGCAAUAUUACGUUAA,-2.63 ± 0.28,-1.68 ± 0.3
CGGGAGCAAUAUUACGUUCC,-2.75 ± 0.31,
CGGUAGCAAUAUUACGACCU,0.308 ± 0.21,-0.233 ± 0.19
CGGUAGCAAUAUUACGACGC,-1.39 ± 0.16,-0.431 ± 0.2
CGGUAGCAAUAUUACGACGG,-0.359 ± 0.081,0.071 ± 0.12
CGGUAGCAAUAUUACGAGAU,-3.19 ± 0.3,-2.32 ± 0.28
CGGUAGCAAUAUUACGAGGA,-3.34 ± 0.46,-1.75 ± 0.29
CGGUAGCAAUAUUACGAUAA,-2.55 ± 0.21,-1.61 ± 0.24
CGGUAGCAAUAUUACGAUCU,-0.105 ± 0.081,0.492 ± 0.12
CGGUAGCAAUAUUACGCAAG,-1.94 ± 0.11,-1.02 ± 0.12
CGGUAGCAAUAUUACGCACG,-2.85 ± 0.21,-1.59 ± 0.26
CGGUAGCAAUAUUACGCGCA,-1.16 ± 0.14,-0.13 ± 0.15
CGGUAGCAAUAUUACGGACC,-3.71 ± 0.35,-1.29 ± 0.21
CGGUAGCAAUAUUACGGAGC,-3.01 ± 0.33,-2.91 ± 0.34
CGGUAGCAAUAUUACGGCAU,-2.98 ± 0.32,-2.11 ± 0.22
CGGUAGCAAUAUUACGGGAA,-3.45 ± 0.41,-2.75 ± 0.29

Sequence,self-splicing fitness (ln) (30 °C),self-splicing fitness (ln) (37 °C)
CGGUAGCAAUAUUACGGUUC,-2.96 ± 0.3,-1.93 ± 0.29
CGGUAGCAAUAUUACGUAAC,-3.22 ± 0.4,-2.06 ± 0.41
CGGUAGCAAUAUUACGUCAU,-3.21 ± 0.14,-2.56 ± 0.15
CGGUAGCAAUAUUACGUCCA,0.282 ± 0.15,0.197 ± 0.23
CGGUAGCAAUAUUACGUUCA,-1.32 ± 0.13,-0.963 ± 0.15
CGUAAGCAAUAUUACGAACU,-1.27 ± 0.083,-0.364 ± 0.074
CGUAAGCAAUAUUACGCAGA,-2.28 ± 0.27,-2.67 ± 0.38
CGUAAGCAAUAUUACGCGUA,-3 ± 0.28,-2.9 ± 0.2
CGUAAGCAAUAUUACGCUGU,-2.93 ± 0.16,-2.17 ± 0.21
CGUAAGCAAUAUUACGGAAA,-3.62 ± 0.47,-2.39 ± 0.39
CGUAAGCAAUAUUACGGAUU,-3.61 ± 0.3,-1.49 ± 0.23
CGUAAGCAAUAUUACGGCGU,-2.28 ± 0.15,-1.59 ± 0.23
CGUAAGCAAUAUUACGGUAA,-3.06 ± 0.28,-1.36 ± 0.17
CGUAAGCAAUAUUACGGUCA,-2.2 ± 0.15,-0.467 ± 0.12
CGUAAGCAAUAUUACGUAGC,-4.38 ± 0.36,-1.62 ± 0.26
CGUAAGCAAUAUUACGUAUU,,-0.991 ± 0.15
CGUAAGCAAUAUUACGUCCG,-0.78 ± 0.059,-0.649 ± 0.08
CGUAAGCAAUAUUACGUCCU,-1.88 ± 0.15,-0.604 ± 0.17
CGUAAGCAAUAUUACGUCGG,-1.2 ± 0.08,-0.133 ± 0.1
CGUAAGCAAUAUUACGUCUC,-3.77 ± 0.28,-1.95 ± 0.17
CGUAAGCAAUAUUACGUGUC,-1.85 ± 0.22,-3.01 ± 0.28
CGUCAGCAAUAUUACGACCA,-0.734 ± 0.11,-0.297 ± 0.13
CGUCAGCAAUAUUACGACCC,-0.525 ± 0.18,0.0394 ± 0.17
CGUCAGCAAUAUUACGAGCG,-3.52 ± 0.15,-1.04 ± 0.15
CGUCAGCAAUAUUACGAGGU,-3.81 ± 0.47,-3.03 ± 0.35

Sequence,self-splicing fitness (ln) (30 °C),self-splicing fitness (ln) (37 °C)
CGUCAGCAAUAUUACGAUGA,-0.998 ± 0.11,0.0314 ± 0.11
CGUCAGCAAUAUUACGAUUA,-0.469 ± 0.17,0.0103 ± 0.13
CGUCAGCAAUAUUACGAUUU,-1.01 ± 0.06,-1.11 ± 0.061
CGUCAGCAAUAUUACGCAUU,-3.62 ± 0.16,-2.31 ± 0.16
CGUCAGCAAUAUUACGCCAC,,-1.01 ± 0.45
CGUCAGCAAUAUUACGCCGC,-2.76 ± 0.32,-1.05 ± 0.27
CGUCAGCAAUAUUACGCUAC,-3.74 ± 0.43,-0.956 ± 0.23
CGUCAGCAAUAUUACGCUCA,-1.1 ± 0.15,0.0237 ± 0.12
CGUCAGCAAUAUUACGCUUC,-3.46 ± 0.36,-3.11 ± 0.31
CGUCAGCAAUAUUACGCUUG,-1.03 ± 0.098,0.41 ± 0.12
CGUCAGCAAUAUUACGGAUC,-1.12 ± 0.051,-0.0121 ± 0.069
CGUCAGCAAUAUUACGGCGA,-1.88 ± 0.17,-1.57 ± 0.21
CGUCAGCAAUAUUACGGCGG,-1.01 ± 0.082,0.0141 ± 0.11
CGUCAGCAAUAUUACGGCUC,-1.43 ± 0.081,0.225 ± 0.088
CGUCAGCAAUAUUACGGGCG,-3.15 ± 0.16,-2.8 ± 0.21
CGUCAGCAAUAUUACGGGUA,-1.81 ± 0.14,-1.06 ± 0.1
CGUCAGCAAUAUUACGGUAG,-0.184 ± 0.059,0.0634 ± 0.064
CGUCAGCAAUAUUACGGUUA,-2.25 ± 0.12,-0.874 ± 0.091
CGUCAGCAAUAUUACGUGAA,-2.11 ± 0.087,-0.281 ± 0.092
CGUCAGCAAUAUUACGUUAU,-2.95 ± 0.14,-2.83 ± 0.17
CGUGAGCAAUAUUACGAAUG,-1.41 ± 0.16,-0.913 ± 0.13
CGUGAGCAAUAUUACGACUU,-2.96 ± 0.16,-1.71 ± 0.19
CGUGAGCAAUAUUACGAGAC,,-0.958 ± 0.35
CGUGAGCAAUAUUACGAGAG,-2.29 ± 0.25,-2.64 ± 0.36
CGUGAGCAAUAUUACGAGCA,-1.58 ± 0.085,-0.55 ± 0.11

Sequence,self-splicing fitness (ln) (30 °C),self-splicing fitness (ln) (37 °C)
CGUGAGCAAUAUUACGAGGU,-0.426 ± 0.29,-1.35 ± 0.31
CGUGAGCAAUAUUACGAUUC,-3.25 ± 0.23,-2.58 ± 0.44
CGUGAGCAAUAUUACGAUUG,-0.949 ± 0.09,-0.662 ± 0.13
CGUGAGCAAUAUUACGCAAC,-2.77 ± 0.36,-2.18 ± 0.33
CGUGAGCAAUAUUACGCCCU,-3.26 ± 0.23,-1.98 ± 0.24
CGUGAGCAAUAUUACGCCUC,-2.12 ± 0.31,-1.07 ± 0.4
CGUGAGCAAUAUUACGCCUG,-1.76 ± 0.26,-0.852 ± 0.36
CGUGAGCAAUAUUACGCUAA,,-1.26 ± 0.48
CGUGAGCAAUAUUACGGAGU,-3.12 ± 0.23,-1.14 ± 0.4
CGUGAGCAAUAUUACGGCAU,-2.59 ± 0.11,-2.28 ± 0.16
CGUGAGCAAUAUUACGGCUC,-3.79 ± 0.42,-1.23 ± 0.27
CGUGAGCAAUAUUACGGGGC,-3.54 ± 0.28,-2.03 ± 0.2
CGUGAGCAAUAUUACGGUCA,-3.84 ± 0.25,-2.12 ± 0.16
CGUGAGCAAUAUUACGGUUU,-3.81 ± 0.18,-3.28 ± 0.22
CGUGAGCAAUAUUACGUAGC,-1.15 ± 0.34,-1.28 ± 0.35
CGUGAGCAAUAUUACGUUAU,-4.44 ± 0.36,-2.38 ± 0.18
CGUUAGCAAUAUUACGAAGU,-2.41 ± 0.34,-1.29 ± 0.3
CGUUAGCAAUAUUACGAGCU,-1.25 ± 0.064,-0.739 ± 0.082
CGUUAGCAAUAUUACGAGUG,-1.18 ± 0.078,0.184 ± 0.094
CGUUAGCAAUAUUACGAGUU,-2.98 ± 0.36,-2.27 ± 0.45
CGUUAGCAAUAUUACGAUUC,-3.09 ± 0.19,-1.68 ± 0.18
CGUUAGCAAUAUUACGAUUU,-2.51 ± 0.27,-1.66 ± 0.25
